Laboratory results: paper PMC5413351, “Structural basis of protein translocation by the Vps4-Vta1 AAA ATPase” (eLife, 2017)

B1: Vps4^101-437: yeast Vps4 construct (residues 101–437) spanning the AAA ATPase cassette (protein, UniProt P52917 101-437, looked up, fragment)
chain: QEEGEDNGGEDNKKLRGALSSAILSEKPNVKWEDVAGLEGAKEALKEAVILPVKFPHLFKGNRKPTSGILLYGPPGTGKSYLAKAVATEANSTFFSVSSSDLVSKWMGESEKLVKQLFAMARENKPSIIFIDEVDALTGTRGEGESEASRRIKTELLVQMNGVGNDSQGVLVLGATNIPWQLDSAIRRRFERRIYIPLPDLAARTTMFEINVGDTPCVLTKEDYRTLGAMTEGYSGSDIAVVVKDALMQPIRKIQSATHFKDVSTEDDETRKLTPCSPGDDGAIEMSWTDIEADELKEPDLTIKDFLKAIKSTRPTVNEDDLLKQEQFTRDFGQEGN
B2: Vps4(101-437) L151D (protein)
chain: QEEGEDNGGEDNKKLRGALSSAILSEKPNVKWEDVAGLEGAKEALKEAVIDPVKFPHLFKGNRKPTSGILLYGPPGTGKSYLAKAVATEANSTFFSVSSSDLVSKWMGESEKLVKQLFAMARENKPSIIFIDEVDALTGTRGEGESEASRRIKTELLVQMNGVGNDSQGVLVLGATNIPWQLDSAIRRRFERRIYIPLPDLAARTTMFEINVGDTPCVLTKEDYRTLGAMTEGYSGSDIAVVVKDALMQPIRKIQSATHFKDVSTEDDETRKLTPCSPGDDGAIEMSWTDIEADELKEPDLTIKDFLKAIKSTRPTVNEDDLLKQEQFTRDFGQEGN
modifications: left off: 6xHis, N-terminal, cleaved
B3: Vps4 full-length: yeast AAA ATPase Vps4, full-length (pET151-Vps4) (protein)
chain 1: MSTGDFLTKGIELVQKAIDLDTATQYEEAYTAYYNGLDYLMLALKYEKNPKSKDLIRAKFTEYLNRAEQLKKHLESEEANAAKKSPSAGSGSNGGNKKISQEEGEDNGGEDNKKLRGALSSAILSEKPNVKWEDVAGLEGAKEALKEAVILPVKFPHLFKGNRKPTSGILLYGPPGTGKSYLAKAVATEANSTFFSVSSSDLVSKWMGESEKLVKQLFAMARENKPSIIFIDEVDALTGTRGEGESEASRRIKTELLVQMNGVGNDSQGVLVLGATNIPWQLDSAIRRRFERRIYIPLPDLAARTTMFEINVGDTPCVLTKEDYRTLGAMTEGYSGSDIAVVVKDALMQPIRKIQSATHFKDVSTEDDETRKLTPCSPGDDGAIEMSWTDIEADELKEPDLTIKDFLKAIKSTRPTVNEDDLLKQEQFTRDFGQEGN
chain 2: MASNAARVVATAKDFDKVGLGIIGYYLQLYAVELILSEEDRSQEMTALATELLDTIEAFKKEIGGESEAEDSDKSLHVMNTLIHDQEKAKIYMLNFTMSLYNEKLKQLKDGPWDVMLKRSLWCCIDLFSCILHLWKENISETSTNSLQKRIKYCKIYLSKLAKGEIGSSDEKTLDYADFADDSEEIKDEDVDHQTSDLENNNNDKVEGLAPKDQTTSYEPVDEVPEFIDDADSVNEEEQTVDKNEDAITKDEQQVVKKEVDLTRPSAPSEPAAAEHKSYTKDELTKIMDRASKIEQIQKLAKYAISALNYEDLPTAKDELTKALDLLNSI
modifications: left off: 6xHis, N-terminal, cleaved | 6xHis, N-terminal, cleaved
B4: Vps4^81-437: Vps4 construct residues 81-437 (pET151-Vps4(81-437)) (protein, UniProt P52917 81-437, looked up, fragment)
chain: AAKKSPSAGSGSNGGNKKISQEEGEDNGGEDNKKLRGALSSAILSEKPNVKWEDVAGLEGAKEALKEAVILPVKFPHLFKGNRKPTSGILLYGPPGTGKSYLAKAVATEANSTFFSVSSSDLVSKWMGESEKLVKQLFAMARENKPSIIFIDEVDALTGTRGEGESEASRRIKTELLVQMNGVGNDSQGVLVLGATNIPWQLDSAIRRRFERRIYIPLPDLAARTTMFEINVGDTPCVLTKEDYRTLGAMTEGYSGSDIAVVVKDALMQPIRKIQSATHFKDVSTEDDETRKLTPCSPGDDGAIEMSWTDIEADELKEPDLTIKDFLKAIKSTRPTVNEDDLLKQEQFTRDFGQEGN

Legend:
[1] = ATPase assay (malachite green end-point); format: biochemical, S. cerevisiae; settings: 1 mM ATP, 37°C, 5 min, pH 7.4, mean of all runs
Protocol: The rate of ATP hydrolysis was determined using an end-point method modified from Merrill and Hanson ([Merrill and Hanson, 2010]). Vps4 at the indicated subunit concentration was incubated with 1 mM ATP at 37°C in 20 mM HEPES/NaOH pH 7.4, 100 mM NaCl, 10 mM MgCl2, 1 mM DTT in a total volume of 10 µl. The hydrolysis reaction was stopped after 5 min by the addition of 100 µl of malachite green color reagent (14 mM ammonium molybdate, 1.3 M HCl, 1.5 mM malachite green) and 50 µl of 21% (w/v) citric acid. Absorbance at 650 nm was read using a Biotek Neo Synergy microplate reader and the amount of inorganic phosphate released by the reaction was determined using a sodium phosphate standard curve. Means and standard deviations reported in Figure 1D are from at least three independent experiments using different protein preparations with three or more technical replicates each.

Vps4^101-437 = target: T1, Vps4^101-437 (Saccharomyces cerevisiae, UniProt P52917, L151D); format: binding, S. cerevisiae; settings: global fit of replicate titrations over [Vps4 monomer], uM, m1 = 1; L151D mutant; Std. Error 0.218; 95% CI (profile likelihood) 4.01 to 4.887; read-out: Kd (fit to normalized anisotropy data, best-fit value)
T1 construct: 6xHis (TEV-cleavable) (N, cleaved yes); made in house; host or cells: E. coli BL21(DE3)RIL
Protocol: Fluorescence polarization assay for ESCRT-III peptide binding
When equilibrium was reached, parallel and perpendicular fluorescence intensities were measured on a Biotek Synergy Neo HTS microplate reader using an excitation wavelength of 485 nm and an emission wavelength of 528 nm.

Row | Molecule | ATPase activity, average ([1]; 0.05 μM Vps4 subunits) | ATPase activity, average ([1]; 1 μM Vps4 subunits) | Kd (Vps4^101-437)
1 | B1 | -26.1936 ATP/min/Vps4 hexamer | 418.838 ATP/min/Vps4 hexamer | –
2 | B2 | – | – | 4.43 µM
3 | B3 | 19.8582 ATP/min/Vps4 hexamer | 701.731 ATP/min/Vps4 hexamer | –
4 | B4 | -6.194 ATP/min/Vps4 hexamer | 456.338 ATP/min/Vps4 hexamer | –
